From ChEMBL document CHEMBL1142204, “Cathepsin A is the major hydrolase catalyzing the intracellular hydrolysis of the antiretroviral nucleotide phosphonoamidate prodrugs GS-7340 and GS-9131” (Antimicrob Agents Chemother, 2007)

Tests used:
[1] = substrate: CC(C)OC(=O)[C@H](C)N[P@](=O)(CO[C@H](C)Cn1cnc2c(N)ncnc21)Oc1ccccc1; assay: Ratio of kcat to Km for Cat A activity; details: Homo sapiens
[2] = substrate: CC(C)OC(=O)[C@H](C)N[P@](=O)(CO[C@H](C)Cn1cnc2c(N)ncnc21)Oc1ccccc1; assay: Activity of Cat A assessed as hydrolysis; details: Homo sapiens

B1: Lysosomal protective protein (Homo sapiens), P10619 (protein)
chain: MIRAAPPPLFLLLLLLLLLVSWASRGEAAPDQDEIQRLPGLAKQPSFRQYSGYLKGSGSKHLHYWFVESQKDPENSPVVLWLNGGPGCSSLDGLLTEHGPFLVQPDGVTLEYNPYSWNLIANVLYLESPAGVGFSYSDDKFYATNDTEVAQSNFEALQDFFRLFPEYKNNKLFLTGESYAGIYIPTLAVLVMQDPSMNLQGLAVGNGLSSYEQNDNSLVYFAYYHGLLGNRLWSSLQTHCCSQNKCNFYDNKDLECVTNLQEVARIVGNSGLNIYNLYAPCAGGVPSHFRYEKDTVVVQDLGNIFTRLPLKRMWHQALLRSGDKVRMDPPCTNTTAASTYLNNPYVRKALNIPEQLPQWDMCNFLVNLQYRRLYRSMNSQYLKLLSSQKYQILLYNGDVDMACNFMGDEWFVDSLNQKMEVQRRPWLVKYGDSGEQIAGFVKEFSHIAFLTIKGAGHMVPTDKPLAAFTMFSRFLNKQPY
B1 gave a kcat/Km [1] of 2.9e+06 M⁻¹ s⁻¹ and a Km [2] of 610 µM.
